Two substances from patent US20160009768A1 can be followed below.

For this experiment, the target named is elongation factor-2 (EF-2) (rabbit) (UniProt P55823). The experiment in a line: cell-based or functional assay.

As for “wild type DT382 (from UniProt P00587 26-406) (enzyme)”, the inhibition of transcription/translation of T7-luc plasmid in IVTT turned out to be 90%.
In turn, “DT382 (G53E): Null construct (from UniProt P00587 26-406) (enzyme)” had an inhibition of transcription/translation of T7-luc plasmid in IVTT of 20%.
